According to the supplement of paper PMC5998384:

Columns and labels:
[1] = tested on: HeLa Kyoto; experiment: solubility in G1/S (NP-40 vs SDS abundance) (log2 ratio); higher = more soluble; details: cell cycle stage: G1/S
[2] = tested on: HeLa Kyoto; experiment: solubility change mitosis vs G1/S (difference of NP-40 vs SDS log2 ratios) (log2 ratio difference); higher = more soluble in mitosis
[3] = tested on: HeLa Kyoto; experiment: melting temperature (median over replicates), in situ; higher = more thermally stable
[4] = tested on: HeLa Kyoto; experiment: thermal stability score vs G1/S (z-score of summed log2 fold changes over temperatures); higher = more thermally stable than in G1/S
[5] = cell cycle stage: early G1 (4.5 h after nocodazole release)
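Throughout, for melting temperature (median over replicates), in situ: HeLa Kyoto cells synchronized by double thymidine or nocodazole block, proteins quantified by TMT10plex mass spectrometry, three independent biological replicates.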
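Throughout, for solubility change mitosis vs G1/S (difference of NP-40 vs SDS log2 ratios): synchronized HeLa Kyoto cells (double thymidine block for G1/S, nocodazole release for mitosis), protein amounts in NP-40 versus SDS lysates quantified by mass spectrometry, three biological replicates.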
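Throughout, for solubility in G1/S (NP-40 vs SDS abundance): HeLa Kyoto cells arrested at G1/S by double thymidine block, proteins quantified by TMT10plex mass spectrometry in mild NP-40 versus SDS extracts, three biological replicates.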
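Throughout, for thermal stability score vs G1/S (z-score of summed log2 fold changes over temperatures): synchronized HeLa Kyoto cells, proteins quantified by TMT10plex mass spectrometry, three biological replicates, mitosis taken 0.5 h after nocodazole release, G1/S directly after double thymidine block.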

| Sequence | solubility in G1/S (log2) [1] | solubility change mitosis (log2) [2] | melting temperature ([3]; cell cycle stage: G1/S) [°C] | melting temperature ([3]; cell cycle stage: mitosis) [°C] | thermal stability score [4, 5] | thermal stability score ([4]; cell cycle stage: mitosis) |
| --- | --- | --- | --- | --- | --- | --- |
| MAAPMTPAARPEDYEAALNAALADVPELARLLEIDPYLKPYAVDFQRRYKQFSQILKNIGENEGGIDKFSRGYESFGVHRCADGGLYCKEWAPGAEGVFLTGDFNGWNPFSYPYKKLDYGKWELYIPPKQNKSVLVPHGSKLKVVITSKSGEILYRISPWAKYVVREGDNVNYDWIHWDPEHSYEFKHSRPKKPRSLRIYESHVGISSHEGKVASYKHFTCNVLPRIKGLGYNCIQLMAIMEHAYYASFGYQITSFFAASSRYGTPEELQELVDTAHSMGIIVLLDVVHSHASKNSADGLNMFDGTDSCYFHSGPRGTHDLWDSRLFAYSSWEILRFLLSNIRWWLEEYRFDGFRFDGVTSMLYHHHGVGQGFSGDYSEYFGLQVDEDALTYLMLANHLVHTLCPDSITIAEDVSGMPALCSPISQGGGGFDYRLAMAIPDKWIQLLKEFKDEDWNMGDIVYTLTNRRYLEKCIAYAESHDQALVGDKSLAFWLMDAEMYTNMSVLTPFTPVIDRGIQLHKMIRLITHGLGGEGYLNFMGNEFGHPEWLDFPRKGNNESYHYARRQFHLTDDDLLRYKFLNNFDRDMNRLEERYGWLAAPQAYVSEKHEGNKIIAFERAGLLFIFNFHPSKSYTDYRVGTALPGKFKIVLDSDAAEYGGHQRLDHSTDFFSEAFEHNGRPYSLLVYIPSRVALILQNVDLPN [GBE1] | -0.184 | -0.104 | 49.7 | 49.6 | -0.0259 | 0.998 |
| MNGRVDYLVTEEEINLTRGPSGLGFNIVGGTDQQYVSNDSGIYVSRIKENGAAALDGRLQEGDKILSVNGQDLKNLLHQDAVDLFRNAGYAVSLRVQHRLQVQNGPIGHRGEGDPSGIPIFMVLVPVFALTMVAAWAFMRYRQQL [SYNJ2BP] | 0.0992 | -0.0614 | 51.6 | 51.6 | 1.82 | 1.39 |
| MQNYKYDKAIVPESKNGGSPALNNNPRRSGSKRVLLICLDLFCLFMAGLPFLIIETSTIKPYHRGFYCNDESIKYPLKTGETINDAVLCAVGIVIAILAIITGEFYRIYYLKKSRSTIQNPYVAALYKQVGCFLFGCAISQSFTDIAKVSIGRLRPHFLSVCNPDFSQINCSEGYIQNYRCRGDDSKVQEARKSFFSGHASFSMYTMLYLVLYLQARFTWRGARLLRPLLQFTLIMMAFYTGLSRVSDHKHHPSDVLAGFAQGALVACCIVFFVSDLFKTKTTLSLPAPAIRKEILSPVDIIDRNNHHNMM [PLPP3] | -0.0783 | -0.139 | 57 | 55.7 | -1.69 | 5.11 |
| MAGGAREVLTLQLGHFAGFVGAHWWNQQDAALGRATDSKEPPGELCPDVLYRTGRTLHGQETYTPRLILMDLKGSLSSLKEEGGLYRDKQLDAAIAWQGKLTTHKEELYPKNPYLQDFLSAEGVLSSDGVWRVKSIPNGKGSSPLPTATTPKPLIPTEASIRVWSDFLRVHLHPRSICMIQKYNHDGEAGRLEAFGQGESVLKEPKYQEELEDRLHFYVEECDYLQGFQILCDLHDGFSGVGAKAAELLQDEYSGRGIITWGLLPGPYHRGEAQRNIYRLLNTAFGLVHLTAHSSLVCPLSLGGSLGLRPEPPVSFPYLHYDATLPFHCSAILATALDTVTVPYRLCSSPVSMVHLADMLSFCGKKVVTAGAIIPFPLAPGQSLPDSLMQFGGATPWTPLSACGEPSGTRCFAQSVVLRGIDRACHTSQLTPGTPPPSALHACTTGEEILAQYLQQQQPGVMSSSHLLLTPCRVAPPYPHLFSSCSPPGMVLDGSPKGAAVESIPVFGALCSSSSLHQTLEALARDLTKLDLRRWASFMDAGVEHDDVAELLQELQSLAQCYQGGDSLVD [MSTO1] | 0.162 | -0.0764 | 51.2 | 51.1 | 0.792 | 0.318 |
| MADAGIRRVVPSDLYPLVLGFLRDNQLSEVANKFAKATGATQQDANASSLLDIYSFWLKSAKVPERKLQANGPVAKKAKKKASSSDSEDSSEEEEEVQGPPAKKAAVPAKRVGLPPGKAAAKASESSSSEESSDDDDEEDQKKQPVQKGVKPQAKAAKAPPKKAKSSDSDSDSSSEDEPPKNQKPKITPVTVKAQTKAPPKPARAAPKIANGKAASSSSSSSSSSSSDDSEEEKAAATPKKTVPKKQVVAKAPVKAATTPTRKSSSSEDSSSDEEEEQKKPMKNKPGPYSSVPPPSAPPPKKSLGTQPPKKAVEKQQPVESSEDSSDESDSSSEEEKKPPTKAVVSKATTKPPPAKKAAESSSDSSDSDSSEDDEAPSKPAGTTKNSSNKPAVTTKSPAVKPAAAPKQPVGGGQKLLTRKADSSSSEEESSSSEEEKTKKMVATTKPKATAKAALSLPAKQAPQGSRDSSSDSDSSSSEEEEEKTSKSAVKKKPQKVAGGAAPSKPASAKKGKAESSNSSSSDDSSEEEEEKLKGKGSPRPQAPKANGTSALTAQNGKAAKNSEEEEEEKKKAAVVVSKSGSLKKRKQNEAAKEAETPQAKKIKLQTPNTFPKRKKGEKRASSPFRRVREEEIEVDSRVADNSFDAKRGAAGDWGERANQVLKFTKGKSFRHEKTKKKRGSYRGGSISVQVNSIKFDSE [NOLC1] | -0.953 | 1.11 | 59.5 | 57 | -2.83 | -4.21 |
| MRPPGFLSRAPSLNRAERGIWSCSMDQREPLPPAPAENEMKYDTNNNEEEEGEQFDFDSGDEIPEADRQAPSAPETGGAGASEAPAPTGGEDGAGAETTPVAEPTKLVLPMKVNPYSVIDITPFQEDQPPTPVPSAEEENVGLHVPCGYLVPVPCGYAVPSNLPLLLPAYSSPVIICATSLDEEAETPEVTEDRQPNSLSSEEPPTSEDQVGREDSALARWAADPANTAWMENPEEAIYDDVPRENSDSEPDEMIYDDVENGDEGGNSSLEYGWSSSEFESYEEQSDSECKNGIPRSFLRSNHKKQLSHDLTRLKEHYEKKMRDLMASTVGVVEIQQLRQKHELKMQKLVKAAKDGTKDGLERTRAAVKRGRSFIRTKSLIAQDHRSSLEEEQNLFIDVDCKHPEAILTPMPEGLSQQQVVRRYILGSVVDSEKNYVDALKRILEQYEKPLSEMEPKVLSERKLKTVFYRVKEILQCHSLFQIALASRVSEWDSVEMIGDVFVASFSKSMVLDAYSEYVNNFSTAVAVLKKTCATKPAFLEFLKQEQEASPDRTTLYSLMMKPIQRFPQFILLLQDMLKNTSKGHPDRLPLQMALTELETLAEKLNERKRDADQRCEVKQIAKAINERYLNKLLSSGSRYLIRSDDMIETVYNDRGEIVKTKERRVFMLNDVLMCATVSSRPSHDSRVMSSQRYLLKWSVPLGHVDAIEYGSSAGTGEHSRHLAVHPPESLAVVANAKPNKVYMGPGQLYQDLQNLLHDLNVIGQITQLIGNLKGNYQNLNQSVAHDWTSGLQRLILKKEDEIRAADCCRIQLQLPGKQDKSGRPTFFTAVFNTFTPAIKESWVNSLQMAKLALEEENHMGWFCVEDDGNHIKKEKHPLLVGHMPVMVAKQQEFKIECAAYNPEPYLNNESQPDSFSTAHGFLWIGSCTHQMGQIAIVSFQNSTPKVIECFNVESRILCMLYVPVEEKRREPGAPPDPETPAVRASDVPTICVGTEEGSISIYKSSQGSKKVRLQHFFTPEKSTVMSLACTSQSLYAGLVNGAVASYARAPDGSWDSEPQKVIKLGVLPVRSLLMMEDTLWAASGGQVFIISVETHAVEGQLEAHQEEGMVISHMAVSGVGIWIAFTSGSTLRLFHTETLKHLQDINIATPVHNMLPGHQRLSVTSLLVCHGLLMVGTSLGVLVALPVPRLQGIPKVTGRGMVSYHAHNSPVKFIVLATALHEKDKDKSRDSLAPGPEPQDEDQKDALPSGGAGSSLSQGDPDAAIWLGDSLGSMTQKSDLSSSSGSLSLSHGSSSLEHRSEDSTIYDLLKDPVSLRSKARRAKKAKASSALVVCGGQGHRRVHRKARQPHQEELAPTVMVWQIPLLNI [ARHGEF10] | -0.0539 | -0.182 | 49.3 | 49.8 | -0.414 | 0.205 |
| MGKRQHQKDKMYITCAEYTHFYGGKKPDLPQTNFRRLPFDHCSLSLQPFVYPVCTPDGIVFDLLNIVPWLKKYGTNPSNGEKLDGRSLIKLNFSKNSEGKYHCPVLFTVFTNNTHIVAVRTTGNVYAYEAVEQLNIKAKNFRDLLTDEPFSRQDIITLQDPTNLDKFNVSNFYHVKNNMKIIDPDEEKAKQDPSYYLKNTNAETRETLQELYKEFKGDEILAATMKAPEKKKVDKLNAAHYSTGKVSASFTSTAMVPETTHEAAAIDEDVLRYQFVKKKGYVRLHTNKGDLNLELHCDLTPKTCENFIRLCKKHYYDGTIFHRSIRNFVIQGGDPTGTGTGGESYWGKPFKDEFRPNLSHTGRGILSMANSGPNSNRSQFFITFRSCAYLDKKHTIFGRVVGGFDVLTAMENVESDPKTDRPKEEIRIDATTVFVDPYEEADAQIAQERKTQLKVAPETKVKSSQPQAGSQGPQTFRQGVGKYINPAATKRAAEEEPSTSATVPMSKKKPSRGFGDFSSW [PPIL2] | 0.00272 | -0.019 | 47.5 | 48.4 | 0.984 | 1.06 |
| MTTKRSLFVRLVPCRCLRGEEETVTTLDYSHCSLEQVPKEIFTFEKTLEELYLDANQIEELPKQLFNCQSLHKLSLPDNDLTTLPASIANLINLRELDVSKNGIQEFPENIKNCKVLTIVEASVNPISKLPDGFSQLLNLTQLYLNDAFLEFLPANFGRLTKLQILELRENQLKMLPKTMNRLTQLERLDLGSNEFTEVPEVLEQLSGLKEFWMDANRLTFIPGFIGSLKQLTYLDVSKNNIEMVEEGISTCENLQDLLLSSNSLQQLPETIGSLKNITTLKIDENQLMYLPDSIGGLISVEELDCSFNEVEALPSSIGQLTNLRTFAADHNYLQQLPPEIGSWKNITVLFLHSNKLETLPEEMGDMQKLKVINLSDNRLKNLPFSFTKLQQLTAMWLSDNQSKPLIPLQKETDSETQKMVLTNYMFPQQPRTEDVMFISDNESFNPSLWEEQRKQRAQVAFECDEDKDEREAPPREGNLKRYPTPYPDELKNMVKTVQTIVHRLKDEETNEDSGRDLKPHEDQQDINKDVGVKTSESTTTVKSKVDEREKYMIGNSVQKISEPEAEISPGSLPVTANMKASENLKHIVNHDDVFEESEELSSDEEMKMAEMRPPLIETSINQPKVVALSNNKKDDTKETDSLSDEVTHNSNQNNSNCSSPSRMSDSVSLNTDSSQDTSLCSPVKQTHIDINSKIRQEDENFNSLLQNGDILNSSTEEKFKAHDKKDFNLPEYDLNVEERLVLIEKSVDSTATADDTHKLDHINMNLNKLITNDTFQPEIMERSKTQDIVLGTSFLSINSKEETEHLENGNKYPNLESVNKVNGHSEETSQSPNRTEPHDSDCSVDLGISKSTEDLSPQKSGPVGSVVKSHSITNMEIGGLKIYDILSDNGPQQPSTTVKITSAVDGKNIVRSKSATLLYDQPLQVFTGSSSSSDLISGTKAIFKFDSNHNPEEPNIIRGPTSGPQSAPQIYGPPQYNIQYSSSAAVKDTLWHSKQNPQIDHASFPPQLLPRSESTENQSYAKHSANMNFSNHNNVRANTAYHLHQRLGPARHGEMWAISPNDRLIPAVTRSTIQRQSSVSSTASVNLGDPGSTRRAQIPEGDYLSYREFHSAGRTPPMMPGSQRPLSARTYSIDGPNASRPQSARPSINEIPERTMSVSDFNYSRTSPSKRPNARVGSEHSLLDPPGKSKVPRDWREQVLRHIEAKKLEKKHPQTSSSGDPCQDGIFISGQQNYSSATLSHKDVPPDSLMKMPLSNGQMGQPLRPQANYSQIHHPPQASVARHPSREQLIDYLMLKVAHQPPYTQPHCSPRQGHELAKQEIRVRVEKDPELGFSISGGVGGRGNPFRPDDDGIFVTRVQPEGPASKLLQPGDKIIQANGYSFINIEHGQAVSLLKTFQNTVELIIVREVSS [ERBB2IP] | -0.0185 | -0.0785 | 48.8 | 49 | 0.246 | 1.12 |
